# Measured values published in patent publication US20220356256A1 (published 2022).
# B1: FZD4 (Fc fusion)
# chain: FGDEEERRCDPIRISMCQNLGYNVTKMPNLVGHELQTDAELQLTTFTPLIQYGCSSQLQFFLCSVYVPMCTEKINIPIGPCGGMCLSVKRRCEPVLKEFGFAWPESLNCSKFPPQNDHNHMCMEGPGDEEVPLPHKTPIQPGEE
# How the values were obtained:
# Assay in all cases: SPR
# [1] = target: 5057 Fz4 B8
# [2] = target: 5067 Fz4 C6
# [3] = target: 5074 Fz4 D1
# [4] = target: 5039 Fz4 A2
# [5] = target: 5045 Fz4 A8
# [6] = target: 5056 Fz4 B7
# [7] = target: 5073 Fz4 C12
# [8] = target: 5054 Fz4 B5
# [9] = target: 5048 Fz4 A11
# [10] = target: 5075 Fz4 D2
binder,measurement,setting,value
B1,Kd,[1],2.56 nM
same,Kd,[2],1.63 nM
same,Kd,[3],3.61 nM
same,Kd,[4],2.57 nM
same,Kd,[5],1.3 nM
same,Kd,[6],1.14 nM
same,Kd,[7],0.422 nM
same,Kd,[8],2.16 nM
same,Kd,[9],3.71 nM
same,Kd,[10],1.19 nM
